Reference: patent US4327178A, “Urinary kallikrein assay: specific substrates and assay method” (University of Miami, priority 1981, dated 1982)

Test system: T1, N=C(N)NCCC[C@H](NC(=O)[C@H](Cc1ccccc1)NC(=O)[C@@H]1CCCN1)C(=O)NCc1ccccc1
T1 construct: dialyzed or gel-filtered human urine in the general A1 assay
Test: Km and Vmax of substrates with purified human urinary kallikrein (Lineweaver-Burk double reciprocal plot)
Assay type: biochemical
Details: other: 62.5 ng purified enzyme, 0.05 M tris-HCl pH 9.5, 37° C., 15 minutes
Protocol: The double reciprocal plot method of H. Lineweaver and D. Burk (J.Am.Chem.Soc. 56, 658 (1934)) was used to estimate Km and Vmax for these substrates. Purified human urinary kallikrein prepared as described by Oza, N. B. and Ryan, J., supra, was used in this study. Reactions were conducted at 37° C. for 15 minutes with 62.5 ng of enzyme and the indicated amount of substrate, in 0.05 M tris-HCl pH 9.5. Reactions were terminated by the addition of a nine-fold excess of 0.1 N NaOH. The ^3 H-labeled product was separated from substrate by extraction with an equal volume (1 ml) of toluene. A 0.5 ml aliquot of the toluene phase was transferred to a scintillation vial containing a toluene-based scintillation fluid and counted. Results for H-ProPheArg-[^3 H]-benzylamide are shown in FIG. 1, and for H-ProPheArg-[^3 H]anilide in FIG. 2. The units of l/v were nmol^-1 min. Units of l/S were μmole^-1.liter.

For human urinary kallikrein (Homo sapiens), the Km was 3.0 µM and the Vmax was 0.88 mmol/min/mg.
